Reference: the supplement of paper PMC9170038

Experiments:
MS2 coat protein [1] = assay: apparent KD of MS2 coat protein, switch OFF state (with FMN for OFF switches, without FMN for ON switches); designed switch direction (-1 OFF switch, 1 ON switch): -1; higher = weaker reporter binding; details: FMN input: 0 or 200 uM; Eterna round: R93 (includes R88 designs)
Summary of the method: (§1)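 In 100 mM Tris-HCl pH 7.5 with 80 mM KCl and 4 mM MgCl2, and without or with constant ligand, SNAP-549-labelled MS2 coat protein was titrated in twofold steps from 0.7 or 1.5 nM to 3 µM. Per-step times went from 0.8–1.5 h down to 10–20 min. The RNA switches were transcribed on-chip from Illumina sequencing clusters, and apparent KD is the per-design median of normalised cluster binding-curve fits.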

MS2 coat protein [2] = assay: apparent KD of MS2 coat protein, switch ON state; designed switch direction (-1 OFF switch, 1 ON switch): -1; higher = weaker reporter binding; details: FMN input: 0 or 200 uM; Eterna round: R93 (includes R88 designs)
Summary of the method: as §1

Sequence | apparent KD of MS2 coat protein (MS2 coat protein [1]) [nM] | apparent KD of MS2 coat protein (MS2 coat protein [2]) [nM]
AAAAAUGCAGGAUAUACGUACAUGUCAAAAGACGUGAAGGGACAUGAGGAUCACCCAUGUAGAAGGGUAAAGAA [JL Neck Breaker 15] | 59.8 | 237
AAGAAGUCAGGAUAUGCCAGAGAACAAGAAAGUGAAGAAUAGCAGAAGGGACAUGAGGAUCACCCAUGUAAAGA [Opal 11] | 34.5 | 46.9
AAACGUUGAGGAUAUACAGAAGGGUAUAAAUCAUAAAAAACACAUGAGGAUCACCCAUGUAGAAGGCAACGAAA | 46.8 | 97.9
AGCUAGACAGGAUAUACGAACAUGUCAAAAGACGUAAGGGAACAUGAGGAUCACCCAUGUAGAAGGGUCUAGCA [Diamond 50] | 63.9 | 28.5
CAGGUACGAGGAUAUACAUAGAUACAGACACAUGUUCAAGUACAUGAGGAUCACCCAUGUAGAAGGCGUAUAUG [Mat - Same state - Mayanna Mod - D108] | 88.5 | 47.6
GAUGAGUGAGGAUAUGUAAAAAAAAGAGAAGAGAAGAGAGAACAGAAGGCACAUGAGGAUCACCCAUGUAGGGA [Default title] | 322 | 226
AGGGAACAUGAGGAUCACCCAUGUGAGGAUAUUGAAAAGAAAAGAAAAGAAAGAAGAACAAGAAGGUACAAGAA [Meryre Pepi I] | 24.8 | 21.8
GAAAAGUGAGGAUAUACAUGAGGAUCACCCAUGUGUAUAAAAAAAUACACAAAAGAAAGUAGAAGGCACUAAAA [Mat - Exclusion 3 - Mayanna mod - D111] | 65.9 | 25.8
AAGAACCAAGGAUAUACAUGAGGAUCACCCAUGUAAAAGAAAGAAAGGGAAAAGAAAAGUAGAAGGUGGAAGAA [Takelot I] | 32.8 | 28.1
CUUAUGUCAGGAUAUCAGUAGUAAAAAAAUAAAAUUACUACUGAGAAGGGACAUGAGGAUCACCCAUGUCAAAA [EX4 365: Super Stable 65] | 97.2 | 164
GUAGAGUGAGGAUAUGAAUAAAAGAAGAGAAAGAGAAAGCAUCAGAAGGCACAUGAGGAUCACCCAUGUAUGAA [JR_Exc004_Sub1225] | 25.3 | 29.2
AAGAAGCUAGGAUAUACAUGAGGAUCACCCAUGUAAAAGAAAGAAGGGAAAGAGAAAAGUAGAAGGAGCAAGAA [Tefnakht] | 34.4 | 26.6
AAAAAUUGAGGAUAUACGAACAUGUCGAAAGACGUGAAGGGACAUGAGGAUCACCCAUGUAGAAGGCGAAAAAA [Mat - Exclusion 2 - JL mod - D68] | 20.7 | 33.7
CCUGAACAUGAGGAUCACCCAUGUGAGGAUAUGAUGCGAAUAAAGAAAGAAGAAAGCAUCAGAAGGCACAUAGG [Mod of Disincluded 3 v.4] | 43.4 | 28
AACAAGACAGGAUAUACAUGAGGAUCACCCAUGUGAGAAUAAAGUAGCGUAACACAAAGUAGAAGGGUCAUGGA [Ruby 7] | 57.6 | 29.7
AAGAAACAUGAGGAUCACCCAUGUCAGGAUAUGCAGGACUGACGAAAGUCAGUCCAAAGCAGAAGGGACUAGAA [8-pair stack] | 56.5 | 29.9
AGAAAGACAGGAUAUACAUGAGGAUCACCCAUGUAAAAGAAAGAAAAGGGAAAGAAAAGUAGAAGGGUCAAAGA [Ruby 64] | 42.1 | 22.1
AUAAAGUGAGGAUAUGUAAAAAUAACGAAAGUUAUAAAUAAACAGAAGGCACAUGAGGAUCACCCAUGUGAAAU [Meechl MS2 EX4 62% 2] | 22.5 | 24.2
GGAAAGCGAGGAUAUACAUGAGGAUCACCCAUGUUAACAAACAAACAAACAAACAAAAGUAGAAGGCGCAAAAU [Exclusion 3 This and That] | 41.1 | 42.6
AGCUAGUGAGGAUAUGCGAACAUGUCAAAAGACGUGAAGGGACAUGAGGAUCACCCAUGUAGAAGGCGCUAGCA [JL 74% mod 2] | 32.7 | 33

Sequence | apparent KD of MS2 coat protein (MS2 coat protein [1]) [nM] | apparent KD of MS2 coat protein (MS2 coat protein [2]) [nM]
AAGAAACAUGAGGAUCACCCAUGUCAGGAUAUGUAAAAGAAAAGAAAAGAAAGAAGAAACAGAAGGGACAAAGG [Neferkaure] | 126 | 83.9
AAAAUGAAAGGAUAUACAUGAGGAUCACCCAUGUUCCAGAACAGGAGUACAAGCGAGUGUAGAAGGUUCAGCAA [Ercesois] | 42.7 | 22.3
AGGAGACAUGAGGAUCACCCAUGUUAGGAUAUGAACGAAAAUAAAUAAAAAUAAAAGUUCAGAAGGAACGAAAA [66%, Wbt, 9] | 45.2 | 45.1
AAGAACUGAGGAUAUACAUAAUAAAAGAAAAGAAACAAAGAACAUGAGGAUCACCCAUGUAGAAGGCGGAAGAA [Menwadjre Sihathor] | 20.7 | 29.4
GGGUGGCGAGGAUAUACAUGAGGAUCACCCAUGUGAGAGAAAAAAGUGAGAAAGAAAAGUAGAAGGCGCUGCCG [salish99-ex3-56] | 329 | 47.9
ACAUGUACAGGAUAUACAUGGAAAAAAAAAAAAAAAAAACUACAUGAGGAUCACCCAUGUAGAAGGGUACAUGA [Ex2 Design 193: Random 12B] | 25.7 | 25.8
GAAAAACAUGAGGAUCACCCAUGUAAGGAUAUGCUAAAAAACACGGAAAAACGUGAUAGCAGAAGGUACAAAAG [Mat - Exclusion 1 - Eli mod - D88] | 44 | 19.8
AACAGGACAGGAUAUACAUGAGGAUCACCCAUGUAGGAACAAAGCAGAGUACCAAACAGUAGAAGGGUCAUGGA [Ruby 28] | 37.2 | 34.2
AAAUGCUGAGGAUAUACAUGAGGAUCACCCAUGUAAAAUAAAUAAUAGGUGUAAACGUGUAGAAGGCAGCAUAA [Exclusion 3.14a (FMN+ favored )] | 27.5 | 62.6
AAAAAGUCAGGAUAUGUCAAAGGUCACGAAAGUGACAAAGGACAGAAGGGACAUGAGGAUCACCCAUGUGGAAA [Fiskers Exclusion 4D1 65% - Late G segment 1] | 115 | 82
CGGGAGUCAGGAUAUACGAACAUGUCGCCAGAUGUCAAGGUACAUGAGGAUCACCCAUGUAGAAGGGAGGAGAG [salish99-Ex2-34] | 65 | 80.8
AAGAAGUGAGGAUAUGCAAAAGAAAAGAAAAGAAAAGAAAAGCAGAAGGCACAUGAGGAUCACCCAUGUAAGAA [Petubastis III] | 28.9 | 12.8
AAAAAACAUGAGGAUCACCCAUGUGAGGAUAUCCAGAAGGGAAUAAAAUAACACGAAAGGAGAAGGCGCAAAAA [Ex 1 May 35] | 31.1 | 35.8
AAGAAGUCAGGAUAUACAUGAGGAUCACCCAUGUAAAAGAAAGAAAGGGAAAAGAAAAGUAGAAGGGACAAGAA [Usermaatre-akhenamun Ramesses VIII] | 25.5 | 18.2
CUCUAGUCAGGAUAUACAAGAAAAGAAGAGAAAGAAAAGAAGUAGAAGGGACAUGAGGAUCACCCAUGUAAGAA [EteRNA is fun!] | 48.2 | 50.9
AAAAAACAUGAGGAUCACCCAUGUAAGGAUAUCGGAAAAGGAAAAAUAAAAAAGAAGACGAGAAGGUACACCAA [Mat - Exclusion 1 - Eli mod - D78] | 24 | 25.8
AAAAAACAUGAGGAUCACCCAUGUGAGGAUAUCCAAAAGUCAAAGAAAAAGACGAAAAGGAGAAGGCACAAAAA [Banishment 2 - Jieux - Exclusion 1] | 49.1 | 44.2
ACCUUACAUGAGGAUCACCCAUGUUAGGAUAUCUCGCUUUCGCAAUCACAGCGCAAGCAGAGAAGGGACACGGG [Esceari] | 66.6 | 28.3
AAAAGCACAGGAUAUACAUAAUUAUGACGAAAGUCAUAAAAACAUGAGGAUCACCCAUGUAGAAGGGUGCAAAA [Mod of Meechl's... 64% 1] | 37.8 | 118
AAAAAGGCAGGAUAUGCAUACCCACGAAAAAAAACGCUGGGACAUGAGGAUCACCCAUGUAGAAGGGCCAAAAA [Dora Explored 11 - Jieux - Exclusion 2] | 28.2 | 54
